The record followed here is paper PMC9401620.

The target in this data set is T1, RBM46 (mouse, UniProt P86049 1-533).
T1 sequence: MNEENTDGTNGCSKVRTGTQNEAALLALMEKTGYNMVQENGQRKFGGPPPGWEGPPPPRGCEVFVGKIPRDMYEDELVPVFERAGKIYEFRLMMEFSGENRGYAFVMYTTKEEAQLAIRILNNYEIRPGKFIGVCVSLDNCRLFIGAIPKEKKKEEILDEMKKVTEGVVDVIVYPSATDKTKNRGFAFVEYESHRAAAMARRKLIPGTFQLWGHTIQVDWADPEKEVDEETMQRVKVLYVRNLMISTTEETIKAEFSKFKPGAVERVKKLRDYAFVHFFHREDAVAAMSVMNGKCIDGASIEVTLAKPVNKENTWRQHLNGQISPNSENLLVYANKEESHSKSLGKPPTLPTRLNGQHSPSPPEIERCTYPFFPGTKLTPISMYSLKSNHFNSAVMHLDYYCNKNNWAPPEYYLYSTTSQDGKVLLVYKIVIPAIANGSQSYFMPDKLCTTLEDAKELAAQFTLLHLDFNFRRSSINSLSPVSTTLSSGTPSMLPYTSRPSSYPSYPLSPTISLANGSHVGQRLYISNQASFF
The experiment in a line: EMSA. A general note: A gel shift assay detects complexes by their altered migration in electrophoresis.

B1: RNA probe without RBM46-binding motif (ssRNA)
RNA: UGUUUGAAACAGGAGUCGCU
Regarding B1, the binding result is “no binding”.

B2: Ccna2 3'UTR RNA probe (ssRNA)
RNA: UUGUGAAACUAAAACCCGAC
On to B2, for which the binding result is listed as “binds”.
